Consider five molecules from patent US9957297B2, “Template-fixed peptidomimetics as inhibitors of FPR1” (POLYPHOR AG, priority 2011, dated 2018).

This assay deals with T1, Formyl-Peptide Receptor 1 (UniProt P21462 1-350, limits assumed).
T1 sequence (looked up): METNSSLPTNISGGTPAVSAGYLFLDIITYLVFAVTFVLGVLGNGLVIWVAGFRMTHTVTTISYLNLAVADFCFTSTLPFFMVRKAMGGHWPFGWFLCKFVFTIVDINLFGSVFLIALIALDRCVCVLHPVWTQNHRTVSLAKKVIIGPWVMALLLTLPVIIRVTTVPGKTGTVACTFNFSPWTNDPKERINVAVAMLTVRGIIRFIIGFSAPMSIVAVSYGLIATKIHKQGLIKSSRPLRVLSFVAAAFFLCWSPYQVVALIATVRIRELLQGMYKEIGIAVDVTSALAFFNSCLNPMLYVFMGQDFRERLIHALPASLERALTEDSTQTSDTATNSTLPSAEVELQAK
The assay can be described thus: cell-based or functional assay.

Bridges are numbered along the chain shown (N, C = ends). [ ]: non-standard residue; d: D form.

B1: cyclo(-Tyr-His-Ala-Cys-His-Gly-^DPro-Trp-Thr-Ile-Cys-Tyr-Gln-Lys-^DThr-Pro-) (peptide)
peptide: cyclo(YHACHG[dP]WTICYQK[dT]P)
modifications: disulfide 4-11
SMILES: CC[C@H](C)[C@@H]1NC(=O)[C@H]([C@@H](C)O)NC(=O)[C@H](Cc2c[nH]c3ccccc23)NC(=O)[C@H]2CCCN2C(=O)CNC(=O)[C@H](Cc2c[nH]cn2)NC(=O)[C@@H]2CSSC[C@H](NC1=O)C(=O)N[C@@H](Cc1ccc(O)cc1)C(=O)N[C@@H](CCC(N)=O)C(=O)N[C@@H](CCCCN)C(=O)N[C@H]([C@H](C)O)C(=O)N1CCC[C@H]1C(=O)N[C@@H](Cc1ccc(O)cc1)C(=O)N[C@@H](Cc1c[nH]cn1)C(=O)N[C@@H](C)C(=O)N2
B1: the “β-Arrestin IC50” value stood at 641 nM.

B2: cyclo(-Tyr-His-Ala-Cys-Trp-Gly-^DPro-Trp-Thr-Ile-Cys-Tyr-Gln-Lys-^DAla-Pro-) (peptide)
peptide: cyclo(YHACWG[dP]WTICYQK[dA]P)
modifications: disulfide 4-11
SMILES: CC[C@H](C)[C@@H]1NC(=O)[C@H]([C@@H](C)O)NC(=O)[C@H](Cc2c[nH]c3ccccc23)NC(=O)[C@H]2CCCN2C(=O)CNC(=O)[C@H](Cc2c[nH]c3ccccc23)NC(=O)[C@@H]2CSSC[C@H](NC1=O)C(=O)N[C@@H](Cc1ccc(O)cc1)C(=O)N[C@@H](CCC(N)=O)C(=O)N[C@@H](CCCCN)C(=O)N[C@H](C)C(=O)N1CCC[C@H]1C(=O)N[C@@H](Cc1ccc(O)cc1)C(=O)N[C@@H](Cc1c[nH]cn1)C(=O)N[C@@H](C)C(=O)N2
With B2, the “β-Arrestin IC50” value is 133 nM.

B3: cyclo(-Tyr-His-Ala-Cys-Trp-Gly-^DPro-Trp-Thr-Ile-Cys-Tyr-Gln-Lys-^DLys-Pro-) (peptide)
peptide: cyclo(YHACWG[dP]WTICYQK[dK]P)
modifications: disulfide 4-11
SMILES: CC[C@H](C)[C@@H]1NC(=O)[C@H]([C@@H](C)O)NC(=O)[C@H](Cc2c[nH]c3ccccc23)NC(=O)[C@H]2CCCN2C(=O)CNC(=O)[C@H](Cc2c[nH]c3ccccc23)NC(=O)[C@@H]2CSSC[C@H](NC1=O)C(=O)N[C@@H](Cc1ccc(O)cc1)C(=O)N[C@@H](CCC(N)=O)C(=O)N[C@@H](CCCCN)C(=O)N[C@H](CCCCN)C(=O)N1CCC[C@H]1C(=O)N[C@@H](Cc1ccc(O)cc1)C(=O)N[C@@H](Cc1c[nH]cn1)C(=O)N[C@@H](C)C(=O)N2
With B3, the “β-Arrestin IC50” value stood at 195 nM.

B4: cyclo(-Tyr-His-Ala-Cys-His-Gly-^DAla-Trp-Thr-Ile-Cys-Tyr-Gln-Lys-^DPro-Pro-) (peptide)
peptide: cyclo(YHACHG[dA]WTICYQK[dP]P)
modifications: disulfide 4-11
SMILES: CC[C@H](C)[C@@H]1NC(=O)[C@H]([C@@H](C)O)NC(=O)[C@H](Cc2c[nH]c3ccccc23)NC(=O)[C@@H](C)NC(=O)CNC(=O)[C@H](Cc2c[nH]cn2)NC(=O)[C@@H]2CSSC[C@H](NC1=O)C(=O)N[C@@H](Cc1ccc(O)cc1)C(=O)N[C@@H](CCC(N)=O)C(=O)N[C@@H](CCCCN)C(=O)N1CCC[C@@H]1C(=O)N1CCC[C@H]1C(=O)N[C@@H](Cc1ccc(O)cc1)C(=O)N[C@@H](Cc1c[nH]cn1)C(=O)N[C@@H](C)C(=O)N2
As for B4, the “β-Arrestin IC50” value was 458 nM.

B5: cyclo(-Tyr-His-Ala-Cys-Trp-Gly-^DAla-Trp-Thr-Ile-Cys-Tyr-Gln-Lys-^DPro-Pro-) (peptide)
peptide: cyclo(YHACWG[dA]WTICYQK[dP]P)
modifications: disulfide 4-11
SMILES: CC[C@H](C)[C@@H]1NC(=O)[C@H]([C@@H](C)O)NC(=O)[C@H](Cc2c[nH]c3ccccc23)NC(=O)[C@@H](C)NC(=O)CNC(=O)[C@H](Cc2c[nH]c3ccccc23)NC(=O)[C@@H]2CSSC[C@H](NC1=O)C(=O)N[C@@H](Cc1ccc(O)cc1)C(=O)N[C@@H](CCC(N)=O)C(=O)N[C@@H](CCCCN)C(=O)N1CCC[C@@H]1C(=O)N1CCC[C@H]1C(=O)N[C@@H](Cc1ccc(O)cc1)C(=O)N[C@@H](Cc1c[nH]cn1)C(=O)N[C@@H](C)C(=O)N2
Turning to B5, the “β-Arrestin IC50” value was 213 nM.
